The text below walks through data of patent US20230257448A1 (TWIST BIOSCIENCE, published 2023).

In the assay the target is T1, S1 monomer of SARS-CoV-2 Omicron (SARS-CoV-2, UniProt P0DTC2 16-685).
T1 construct: domain: S1
The assay is described as follows: SPR (Carterra LSA, antibody amine-coupled to the chip, spike protein as analyte).

B1: 3-31 (Fc fusion)
chain: EVQLVESGGGLVQPGGSLRLSCAASGSTFSINAMGWFRQAPGKEREFVAGITSSGGYTNYADSVKGRFTISADNSKNTAYLQMNSLKPEDTAVYYCAADGVPEYSDYASGPVWGQGTLVTVSS
As to B1, the binding result is “no binding”.
